Measured values as given in patent publication US20220153872A1 (MAB LEGEND BIOTECH, published 2022).

Tests used:
[1] = molecular target: T1, human Factor XIa, activated form of coagulation factor XI (human, UniProt P03951 19-387; P03951 388-625); experiment: SPR, BIAcore T200, antibody captured on Protein A chip, FXIa as analyte, 1:1 Langmuir fit
T1 construct: also called FXIa; human FXIa
Procedure: (2) Sample testing conditions: The binding characteristics of FXIa and antibodies were preliminarily determined and evaluated in a manual mode. 10 nM was determined as the maximum analytical concentration of FXIa. […] During the sample analysis, the flow rate was set to be 30 μL/min, the binding time was 120 s, and the dissociation time was 600 s.
(3) Regeneration conditions: With reference to other experiments, preliminary determination and evaluation were performed in a manual mode. […] During the regeneration, the flow rate was set to be 30 μL/min, and the regeneration time was 30 s.
(4) Kinetic parameter determination: The experiment was carried out in a multi-cycle mode, in which the response signal took the analysis time as the horizontal coordinate and the response value as the vertical coordinate. The obtained data were fitted by BIAcore T200 analysis software, during which a 1:1 Langmuir binding model was used as a fitting model, so as to determine the kinetic constants such as an association rate constant, a dissociation rate constant, and an association-dissociation constant.

[2] = molecular target: T1, human Factor XIa, activated form of …; experiment: ELISA
[3] = molecular target: T1, human Factor XIa, activated form of …; experiment: cell-based or functional assay
human FVIIa = molecular target: T2, human FVIIa (human, UniProt P08709 61-212; P08709 213-466); experiment: ELISA, antibody dilution series
T2 sequence (looked up) 1: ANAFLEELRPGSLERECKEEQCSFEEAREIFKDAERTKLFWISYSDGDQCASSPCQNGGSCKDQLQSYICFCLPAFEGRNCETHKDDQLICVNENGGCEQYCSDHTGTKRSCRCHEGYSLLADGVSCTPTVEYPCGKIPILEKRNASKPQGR
T2 sequence (looked up) 2: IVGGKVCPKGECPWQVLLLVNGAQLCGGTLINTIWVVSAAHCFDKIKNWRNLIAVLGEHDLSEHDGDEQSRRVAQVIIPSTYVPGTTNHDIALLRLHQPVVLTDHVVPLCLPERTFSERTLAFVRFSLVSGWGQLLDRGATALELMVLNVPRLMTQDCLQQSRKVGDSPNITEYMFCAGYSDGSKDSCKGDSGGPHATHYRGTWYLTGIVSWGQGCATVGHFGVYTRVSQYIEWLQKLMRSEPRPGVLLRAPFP
Procedure: (§1) In this example, the binding ability of coagulation factors PK, PKa, FXII, FXIIa, FIX, FIXa, FX, FXa, FVIIa, and Thrombin to antibodies at a series of diluted concentrations was analyzed using ELISA.

human FXII = molecular target: T3, human FXII (human, UniProt P00748 20-615); experiment: ELISA, antibody dilution series
T3 sequence (looked up): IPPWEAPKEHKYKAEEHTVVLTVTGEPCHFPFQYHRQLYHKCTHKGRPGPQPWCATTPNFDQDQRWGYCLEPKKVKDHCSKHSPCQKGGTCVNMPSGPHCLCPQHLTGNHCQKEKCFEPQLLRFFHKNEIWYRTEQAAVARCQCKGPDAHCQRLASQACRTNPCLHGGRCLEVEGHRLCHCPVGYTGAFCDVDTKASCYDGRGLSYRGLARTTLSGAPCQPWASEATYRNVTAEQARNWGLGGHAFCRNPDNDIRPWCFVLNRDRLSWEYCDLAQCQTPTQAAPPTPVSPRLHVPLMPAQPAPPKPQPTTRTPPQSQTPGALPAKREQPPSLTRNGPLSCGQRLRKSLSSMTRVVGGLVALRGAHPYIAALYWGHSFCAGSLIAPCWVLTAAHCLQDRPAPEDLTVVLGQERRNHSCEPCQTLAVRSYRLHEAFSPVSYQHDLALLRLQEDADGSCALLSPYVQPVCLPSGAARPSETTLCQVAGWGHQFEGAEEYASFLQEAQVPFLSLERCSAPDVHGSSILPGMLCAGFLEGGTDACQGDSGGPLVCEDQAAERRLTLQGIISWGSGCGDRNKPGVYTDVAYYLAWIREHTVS
Procedure: as §1

human FIX = human FIX (human, UniProt P00740 47-461); experiment: ELISA, antibody dilution series
Procedure: as §1

human FXa = human FXa (human, UniProt P00742 41-179; P00742 235-488, limits assumed); experiment: ELISA, antibody dilution series
Procedure: as §1

human PK = human PK (human, UniProt P03952 20-638); experiment: ELISA, antibody dilution series
Procedure: as §1

human FIXa = human FIXa (human, UniProt P00740 47-191; P00740 227-461); experiment: ELISA, antibody dilution series
Procedure: as §1

human Thrombin = human Thrombin (human, UniProt P00734 328-363; P00734 364-622); experiment: ELISA, antibody dilution series
Procedure: as §1

human FX = human FX (human, UniProt P00742 41-488); experiment: ELISA, antibody dilution series
Procedure: as §1

B1: anti-human FXIa full-length human monoclonal antibody 14624 (antibody, IgG1, V domains shown)
VH: QVQLVQSGAEVKKPGASVKVSCKVSGYTLTELSMHWVRQAPGKGLEWMGGFDPEDGETIYAQKFQGRVTMTEDTSTDTAYMELSSLRSEDTAVYYCATDRPVRGVIPYYYYYGMDVWGQGTLVTVSS
VL: QSALTQPPSASGTPGQTVTISCSGSRSNIGSRPVNWYQHLPGTAPKLLIYIDHQRPSGVPDRFSGSKSGTSASLAISGLQSDDEADYYCAAWDDSLDAYVFGTGTKVTVL
notes: Full-length IgG1 made in CHO cells
Kd [1]: 0.0231 nM
koff [1]: 0.00245 s⁻¹
kon [1]: 1.06e+08 M⁻¹ s⁻¹
EC50 [2]: 0.056 nM
IC50 (nM), inhibition of human FXIa hydrolysis of S-2366 [3]: 47.3 nM
binding result (human FVIIa): no binding
binding result (human FXII): no binding
binding result (human FIX): no binding
binding result (human FXa): no binding
binding result (human PK): no binding
binding result (human FIXa): no binding
binding result (human Thrombin): no binding
binding result (human FX): no binding
